Assay [1] deals with T1, TIGIT (UniProt Q495A1 22-141, limits assumed).
T1 construct: also called T cell immunoreceptor with Ig and ITIM domains; hTIGIT
T1 sequence (looked up): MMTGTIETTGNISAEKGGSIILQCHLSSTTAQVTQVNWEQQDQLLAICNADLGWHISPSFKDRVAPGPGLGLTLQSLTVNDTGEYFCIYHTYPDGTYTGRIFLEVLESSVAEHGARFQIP
As to the kind of experiment: ELISA. Set-up: unit not given here.

Assay [2] concerns the target T1, TIGIT. As to the kind of experiment: SPR (Carterra).
A further assay concerns the target T2, recombinant human TIGIT (human, UniProt Q495A1 22-141, limits assumed).
T2 construct: also called T cell immunoreceptor with Ig and ITIM domains
T2 sequence (looked up): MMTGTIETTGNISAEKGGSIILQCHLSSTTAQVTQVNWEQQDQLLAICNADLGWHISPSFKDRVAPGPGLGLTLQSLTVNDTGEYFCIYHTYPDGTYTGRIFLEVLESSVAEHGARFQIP
As to the kind of experiment: SPR (Carterra), average. On the procedure:
Binding affinities of VHH-Fc proteins to recombinant human TIGIT were measured by SPR using a Carterra instrument (Table 10A). […] Average values reported from measurements from 1-2 samples.

Another assay concerns the target T3, human TIGIT-Fc (human, UniProt Q495A1 22-141, limits assumed).
T3 construct: not shown: Fc; not described
T3 sequence (looked up): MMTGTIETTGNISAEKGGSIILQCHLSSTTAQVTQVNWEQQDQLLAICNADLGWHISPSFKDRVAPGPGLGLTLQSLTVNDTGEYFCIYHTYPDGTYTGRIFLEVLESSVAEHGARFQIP
In words: CD155 competition ELISA, single point. Also: test concentration or dose not given here. As to the method: TIGIT/CD155 inhibition of VHH-Fcs were assessed using an ELISA assay (Table 10B). Briefly, human TIGIT-Fc was coated on a plate & then incubated with VHH-Fcs and human CD155-biotin. Bound CD155-biotin was detected using a streptavidin-HRP conjugate visualized with TMB. Strong inhibitors from the single point screen were titrated to determine EC50 (Table 10C).

For assay [3], the target named is T1, TIGIT. As to the kind of experiment: SPR (Carterra). This is another data set of the same source.
For assay [4], the target named is T1, TIGIT. In words: TIGIT:CD155 blockade assay, competitor CD155.

Like-named read-outs stand apart in the source and are kept apart here.

B1: TIGIT-211-40 (antibody, V domains shown)
VH: EVQLLESGGGLVQPGGSLRLSCAASGFTFSRYAMNWVRQAPGKGLEWVSEISPSGKKKYYADSVKGRFTISRDNSKNTLYLQMNSLRAEDTAVYYCAKSSFDKYNFDYWGQGTLVTVSS
VL: DIQMTQSPSSLSASVGDRVTITCRASQDIGNFLNWYQQKPGKAPKLLIYRTSWLQSGVPSRFSGSGSGTDFTLTISSLQPEDFATYYCQQRSSYPPTFGQGTKVEIK
Regarding B1, the ELISA in the assay with TIGIT [1] came out at 10.2. For the same molecule, in the assay with TIGIT [2], binding was put at a Kd of 392 nM, the koff amounted to 0.0405 s⁻¹ and the kon was determined as 103000 M⁻¹ s⁻¹.

B2: TIGIT-211-57 (antibody, V domains shown)
VH: EVQLLESGGGLVQPGGSLRLSCAASGLTFPNYGMGWVRQAPGKGLEWVSAISREGRATYYADSVKGRFTISRDNSKNTLYLQMNSLRAEDTAVYYCARVIAAAGAFDYWGQGTLVTVSS
VL: DIQMTQSPSSLSASVGDRVTITCRSSQSLVHSTGNTYLHWYQQKPGKAPKLLIYGKNIRPSGVPSRFSGSGSGTDFTLTISSLQPEDFATYYCQQSYTTPWTFGQGTKVEIK
The molecule B2 registered an ELISA with TIGIT [1] of 12.4. Further, in the assay with TIGIT [2], the Kd amounted to 3400 nM, the off-rate (koff) was determined as 0.105 s⁻¹ and the kon was determined as 30800 M⁻¹ s⁻¹.

B3: TIGIT-211-28 (antibody, V domains shown)
VH: EVQLLESGGGLVQPGGSLRLSCAASGFTFSTYAMSWVRQAPGKGLEWVSEISPSGGYTYYADSVKGRFTISRDNSKNTLYLQMNSLRAEDTAVYYCAKVKLGGGPNFDYWGQGTLVTVSS
VL: DIQMTQSPSSLSASVGDRVTITCQGASLRNYYASWYQQKPGKAPKLLIYDTSKVASGVPSRFSGSGSGTDFTLTISSLQPEDFATYYCFQGSHIPYTFGQGTKVEIK
In turn, B3 came in with an ELISA in the assay with TIGIT [1] of 7.2. In addition, in the assay with TIGIT [2], the Kd amounted to 63.1 nM, the koff is 0.0016 s⁻¹ and the kon is 25400 M⁻¹ s⁻¹.

B4: TIGIT-211-43 (antibody, V domains shown)
VH: EVQLLESGGGLVQPGGSLRLSCAASGFTFYDYTMDWVRQAPGKGLEWVSAISGSGGGTSYADSVKGRFTISRDNSKNTLYLQMNSLRAEDTAVYYCARRHWPGGFDYWGQGTLVTVSS
VL: DIQMTQSPSSLSASVGDRVTITCRASQSIRRYLNWYQQKPGKAPKLLIYWASDRESGVPSRFSGSGSGTDFTLTISSLQPEDFATYYCQQSFSTPLTFGQGTKVEIK
For B4, the ELISA with TIGIT [1] was found to be 12. In the assay with TIGIT [2], the affinity, expressed as Kd, was 819 nM; the koff is 0.00117 s⁻¹; the kon was found to be 1430 M⁻¹ s⁻¹.

B5: TIGIT-211-69 (antibody, V domains shown)
VH: EVQLLESGGGLVQPGGSLRLSCAASGFTFGNYRMTWVRQAPGKGLEWVGVIWGGGGTYYADSVKGRFTISRDNSKNTLYLQMNSLRAEDTAVYYCARIFSYALDYWGQGTLVTVSS
VL: DIQMTQSPSSLSASVGDRVTITCRASQNIRSYLNWYQQKPGKAPKLLIYGASTLQSGVPSRFSGSGSGTDFTLTISSLQPEDFATYYCQQSYENPLTFGQGTKVEIK
On to B5, for which, in the assay with TIGIT [1], the ELISA was determined as 7.9. Also, in the assay with TIGIT [2], the Kd stood at 3040 nM, the koff came out at 0.0622 s⁻¹ and the kon stood at 20400 M⁻¹ s⁻¹.

B6: TIGIT-211-42 (antibody, V domains shown)
VH: EVQLLESGGGLVQPGGSLRLSCAASGFTFNHYGMGWVRQAPGKGLEWVSYISSSGSSTYYADSVKGRFTISRDNSKNTLYLQMNSLRAEDTAVYYCAKGWLGNFDYWGQGTLVTVSS
VL: DIQMTQSPSSLSASVGDRVTITCRASQGVRTSLAWYQQKPGKAPKLLIYGKNIRPSGVPSRFSGSGSGTDFTLTISSLQPEDFATYYCQQSYSFPLTFGQGTKVEIK
B6 showed an ELISA in the assay with TIGIT [1] of 8. In the assay with TIGIT [2], binding was characterised by a dissociation constant (Kd) of 66.1 nM, the koff worked out at 0.000643 s⁻¹ and the kon came out at 9740 M⁻¹ s⁻¹.

B7: TIGIT-211-35 (antibody, V domains shown)
VH: EVQLLESGGGLVQPGGSLRLSCAASGFTFNAYPMTWVRQAPGKGLEWVSAITGSGGSTYYADSVKGRFTISRDNSKNTLYLQMNSLRAEDTAVYYCARDGSYSSSWYGYWGQGTLVTVSS
VL: DIQMTQSPSSLSASVGDRVTITCSGNKLGDKYASWYQQKPGKAPKLLIYRTSWLQSGVPSRFSGSGSGTDFTLTISSLQPEDFATYYCVARAVRGNPHVLFGQGTKVEIK
B7: the ELISA with TIGIT [1] amounted to 8.8. In addition, in the assay with TIGIT [2], the affinity, expressed as Kd, was 605 nM; the koff came out at 0.0406 s⁻¹; the kon worked out at 67100 M⁻¹ s⁻¹.

B8: TIGIT-SC196 (Fc fusion)
VHH: EVQLVESGGGLVQPGGSLRLSCAASGFAFSSDWMGWFRQAPGKEREWVASVLRGGYTWYADSVKGRFTISADNSKNTAYLQMNSLKPEDTAVYYCATEGLGYWGQGTLVTVSS
notes: VHH-Fc
In the case of B8, in the assay with recombinant human TIGIT, the Kd came out at 112000 nM, the koff stood at 0.00692 s⁻¹ and the kon is 143 M⁻¹ s⁻¹. Further, the “OD (450 nm)” value with human TIGIT-Fc was determined as 0.374 OD.

B9: TIGIT-211-18 (antibody, V domains shown)
VH: EVQLLESGGGLVQPGGSLRLSCAASGFTFGTIPMSWVRQAPGKGLEWVGVIWGGGGTYYADSVKGRFTISRDNSKNTLYLQMNSLRAEDTAVYYCAKAHGNPVSDLSFDYWGQGTLVTVSS
VL: DIQMTQSPSSLSASVGDRVTITCSGDKLGDKYTSWYQQKPGKAPKLLIYHTSRLQDGVPSRFSGSGSGTDFTLTISSLQPEDFATYYCQQSYNLPLTFGQGTKVEIK
In the assay with TIGIT [1], B9 showed an ELISA of 9.7. Moreover, in the assay with TIGIT [2], the Kd is 268 nM, the koff was 0.000832 s⁻¹ and the kon was determined as 3110 M⁻¹ s⁻¹.

B10: TIGIT-211-30 (antibody, V domains shown)
VH: EVQLLESGGGLVQPGGSLRLSCAASGFTFKSYGMHWVRQAPGKGLEWVSAISGSGGGTSYADSVKGRFTISRDNSKNTLYLQMNSLRAEDTAVYYCARAGQWLGDFDYWGQGTLVTVSS
VL: DIQMTQSPSSLSASVGDRVTITCRASQPIGPDLLWYQQKPGKAPKLLIYRKSNRPSGVPSRFSGSGSGTDFTLTISSLQPEDFATYYCQQSYSTPYTFGQGTKVEIK
The molecule B10 showed an ELISA in the assay with TIGIT [1] of 8. In the assay with TIGIT [2], this molecule had a Kd of 2230 nM, a koff of 0.0681 s⁻¹ and a kon of 30500 M⁻¹ s⁻¹.

B11: TIGIT-211-51 (antibody, V domains shown)
VH: EVQLLESGGGLVQPGGSLRLSCAASGFTFHKYGMAWVRQAPGKGLEWVSTISSGGGYTYYPDSVKGRFTISRDNSKNTLYLQMNSLRAEDTAVYYCARDTYLHFDYWGQGTLVTVSS
VL: DIQMTQSPSSLSASVGDRVTITCRASQGVRTSLAWYQQKPGKAPKLLIYAKNNRPSGVPSRFSGSGSGTDFTLTISSLQPEDFATYYCQQSYSAPYTFGQGTKVEIK
In turn, B11 registered an ELISA in the assay with TIGIT [1] of 10.7. For the same molecule, in the assay with TIGIT [2], binding was put at a Kd of 96.5 nM, the koff came to 0.0335 s⁻¹ and the kon amounted to 347000 M⁻¹ s⁻¹.

B12: TIGIT-SC157 (Fc fusion)
VHH: EVQLVESGGGLVQPGGSLRLSCAASGFTFSPSWMGWFRQAPGKEREWVASVLRGGYTWYADSVKGRFTISADNSKNTAYLQMNSLKPEDTAVYYCTTEGYDFWSGYYDYWGQGTLVTVSS
notes: VHH-Fc
Regarding B12, in the assay with recombinant human TIGIT, the Kd stood at 302000 nM and the koff is 0.0054 s⁻¹. Besides, the “OD (450 nm)” value with human TIGIT-Fc amounted to 0.414 OD.

B13: TIGIT-471-001 (antibody, V domains shown)
VH: EVQLLESGGGLVQPGGSLRLSCAASGFTFSNYGVSWVRQAPGKGLEWVGYINPSRGYTYYADSVKGRFTISRDNSKNTLYLQMNSLRAEDTAVYYCARSYGGGFDYWGQGTLVTVSS
VL: DIQMTQSPSSLSASVGDRVTITCRASQTIERRLNWYQQKPGKAPKLLIYDASSLHTGVPSRFSGSGSGTDFTLTISSLQPEDFATYYCQQSYIIPPTFGQGTKVEIK
notes: Variable domains only
Turning to B13, in the assay with TIGIT [3], the Kd was determined as 61.3 nM, the RU came out at 175 RU, the koff amounted to 0.022 s⁻¹ and the kon is 359000 M⁻¹ s⁻¹. The IC50 with TIGIT [4] amounted to 9.6 nM.

B14: TIGIT-211-17 (antibody, V domains shown)
VH: EVQLLESGGGLVQPGGSLRLSCAASGFTFAEYSMNWVRQAPGKGLEWVSWISPHGALTYYADSVKGRFTISRDNSKNTLYLQMNSLRAEDTAVYYCARSYGGGFDYWGQGTLVTVSS
VL: DIQMTQSPSSLSASVGDRVTITCRASQTIERRLNWYQQKPGKAPKLLIYQNDKRPSGVPSRFSGSGSGTDFTLTISSLQPEDFATYYCQQSYSIPPTFGQGTKVEIK
For the molecule B14, in the assay with TIGIT [1], the ELISA came out at 13.2. Moreover, in the assay with TIGIT [2], binding was put at a Kd of 472 nM, the koff was 0.126 s⁻¹ and the kon is 266000 M⁻¹ s⁻¹.

B15: TIGIT-211-45 (antibody, V domains shown)
VH: EVQLLESGGGLVQPGGSLRLSCAASGFTFRRYVMGWVRQAPGKGLEWVSEISPSGGYTYYADSVKGRFTISRDNSKNTLYLQMNSLRAEDTAVYYCAKRWTFNTAFDYWGQGTLVTVSS
VL: DIQMTQSPSSLSASVGDRVTITCRASQSIRRYLNWYQQKPGKAPKLLIYDASNLQSGVPSRFSGSGSGTDFTLTISSLQPEDFATYYCQQSYDFPRTFGQGTKVEIK
In turn, B15 displayed an ELISA in the assay with TIGIT [1] of 8.8. In the assay with TIGIT [2], this molecule registered a Kd of 105 nM, a koff of 0.00125 s⁻¹ and a kon of 11900 M⁻¹ s⁻¹.

B16: TIGIT-SC138 (Fc fusion)
VHH: EVQLVESGGGLVQPGGSLRLSCAASGFTLENNMMGWFRQAPGKGREFVAAISRSGTLKAYADSVKGRFTISADNSKNTAYLQMNSLKPEDTAVYYCARVRYYYDSSGYFFWFDLWGQGTLVTVSS
notes: VHH-Fc
Consider B16, for which, in the assay with recombinant human TIGIT, the Kd is 7300 nM, the koff came out at 0.363 s⁻¹ and the kon amounted to 49700 M⁻¹ s⁻¹. Moreover, in the assay with human TIGIT-Fc, the “OD (450 nm)” value amounted to 0.393 OD.

The values are drawn from patent US20260184782A1 (TWIST BIOSCIENCE, published 2026).
